Here are results for 22 molecules from US20120135923A1 (IPSEN PHARMA S A S, published 2012).

The target in assay [1] is T1, human melanocortin receptor subtype 1 (hMC1-R) (human, UniProt Q01726 1-317).
T1 construct: whole, on cells; membranes of CHO-K1 cells
The assay is described as follows: [125I]-NDP-α-MSH competition, membranes. Here is the method: (§1) Cellular membranes used for the in vitro receptor binding assays were obtained from transgenic CHO-K1 cells stably expressing hMC-R receptor subtypes 1, 3, 4 or 5. […] The pellets were resuspended in the same buffer and centrifuged at 50,000 g for 10 minutes at approximately 4° C. The washed pellets containing the cellular membranes were stored at approximately −80° C.
(§2) Competitive inhibition of [¹²⁵I](Tyr²)-(Nle⁴-D-Phe⁷)α-MSH ([¹²⁵I]-NDP-α-MSH, Amersham Biosciences®) binding was carried out in polypropylene 96 well plates. Cell membranes (1-10 μg protein/well) prepared as described above were incubated in 50 mM Tris-HCl at pH 7.4 containing 0.2% bovine serum albumin (BSA), 5 mM MgCl₂, 1 mM CaCl₂ and 0.1 mg/mL bacitracin, with increasing concentrations of the test compound and 0.1-0.3 nM […] for approximately 90-120 minutes at approximately 37° C. Bound [¹²⁵I]-NDP-α-MSH ligand was separated from free [¹²⁵I]-NDP-α-MSH by filtration through GF/C glass fiber filter plates (Unifilter®; Packard) presoaked with 0.1% (w/v) polyethylenimine (PEI), using a Packard Filtermate® harvester. Filters were washed three times with 50 mM Tris-HCl at pH 7.4 at a temperature of approximately 0-4° C. and then assayed for radioactivity using a Packard Topcount® scintillation counter. Binding data were analyzed by computer-assisted non-linear regression analysis (XL fit; IDBS).

In assay [2] the target is T2, human melanocortin receptor subtype 5 (hMC5-R) (human, UniProt P33032 1-325).
T2 construct: whole, on cells; membranes of CHO-K1 cells
In words: [125I]-NDP-α-MSH competition, membranes. Here is the method: as §1, §2

In assay [3] the target is T3, hMC5-R (human, UniProt P33032 1-325).
T3 construct: whole, on cells; Assayed as membranes of CHO-K1 cells expressing the receptor; also called hMC-R receptor subtype 5; melanocortin-5 receptor (MC5-R)
In words: competition with [125I]-NDP-α-MSH, CHO-K1 membranes. As for the experimental part: as §1, §2

Assay [4] concerns the target T4, hMC3-R (human, UniProt P41968 1-323).
T4 construct: whole, on cells; Assayed as membranes of CHO-K1 cells expressing the receptor; also called hMC-R receptor subtype 3; melacortin-3 (MC3-R)
The description is as above. As for the experimental part: as §1, §2

Assay [5] concerns the target T5, hMC4-R (human, UniProt P32245 1-332).
T5 construct: whole, on cells; Assayed as membranes of CHO-K1 cells expressing the receptor; also called hMC-R receptor subtype 4; melanocortin-4 (MC4-R)
Described as above. Here is the method:
as §1, §2

The target of assay [6] is T6, hMC1-R (human, UniProt Q01726 1-317).
T6 construct: whole, on cells; Assayed as membranes of CHO-K1 cells expressing the receptor; also called hMC-R receptor subtype 1; melanocyte-specific receptor (MC1-R)
The assay is described as above. As for the experimental part: as §1, §2

The target of assay [7] is T7, human melanocortin receptor subtype 4 (hMC4-R) (human, UniProt P32245 1-332).
T7 construct: whole, on cells; membranes of CHO-K1 cells
In words: [125I]-NDP-α-MSH competition, membranes. As for the experimental part:
as §1, §2

Bridge positions count the residues as written; N and C are the ends. Square brackets hold non-standard residues; d marks the D form. Ends that are not written are not given here. 2Nal = N[C@@H](Cc1ccc2ccccc2c1)C(=O)O; d2Nal = N[C@H](Cc1ccc2ccccc2c1)C(=O)O; Bta = N[C@@H](Cc1csc2ccccc12)C(=O)O; hPhe = N[C@@H](CCc1ccccc1)C(=O)O; Cha = N[C@@H](CC1CCCCC1)C(=O)O; dCha = N[C@H](CC1CCCCC1)C(=O)O; Pen = CC(C)(S)[C@H](N)C(=O)O; Nle = CCCC[C@H](N)C(=O)O; Ava = NCCCCC(=O)O; GABA = NCCCC(=O)O; βAla = NCCC(=O)O

T1 sequence (Q01726 whole entry): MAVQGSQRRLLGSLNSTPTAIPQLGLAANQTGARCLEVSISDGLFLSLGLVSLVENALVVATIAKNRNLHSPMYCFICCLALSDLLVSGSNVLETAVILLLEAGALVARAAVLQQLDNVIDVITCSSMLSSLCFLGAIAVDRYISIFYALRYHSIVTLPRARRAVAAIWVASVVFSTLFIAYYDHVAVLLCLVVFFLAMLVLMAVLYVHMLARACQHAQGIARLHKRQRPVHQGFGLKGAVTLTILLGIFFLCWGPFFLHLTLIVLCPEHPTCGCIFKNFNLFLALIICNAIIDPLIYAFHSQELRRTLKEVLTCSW
T6 sequence (Q01726 whole entry): as above
T3 sequence (P33032 whole entry): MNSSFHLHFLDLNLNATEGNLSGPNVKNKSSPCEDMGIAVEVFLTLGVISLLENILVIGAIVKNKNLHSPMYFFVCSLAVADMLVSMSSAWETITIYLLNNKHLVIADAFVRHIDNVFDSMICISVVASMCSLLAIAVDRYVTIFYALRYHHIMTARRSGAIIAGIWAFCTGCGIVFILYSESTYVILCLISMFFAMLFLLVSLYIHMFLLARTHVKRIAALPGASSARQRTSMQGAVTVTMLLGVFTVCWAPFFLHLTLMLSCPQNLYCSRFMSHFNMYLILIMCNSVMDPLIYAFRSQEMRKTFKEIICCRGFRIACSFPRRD
T2 sequence (P33032 whole entry): as above
T7 sequence (P32245 whole entry): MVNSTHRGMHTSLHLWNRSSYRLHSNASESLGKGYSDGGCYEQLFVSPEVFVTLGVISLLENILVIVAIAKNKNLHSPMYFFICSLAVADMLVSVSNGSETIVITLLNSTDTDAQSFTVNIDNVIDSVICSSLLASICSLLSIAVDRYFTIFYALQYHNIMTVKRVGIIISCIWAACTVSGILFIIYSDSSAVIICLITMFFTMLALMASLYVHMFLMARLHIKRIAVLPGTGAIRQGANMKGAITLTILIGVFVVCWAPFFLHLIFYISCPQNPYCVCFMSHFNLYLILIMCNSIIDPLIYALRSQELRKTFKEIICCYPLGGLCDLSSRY
T5 sequence (P32245 whole entry): as above
T4 sequence (P41968 whole entry): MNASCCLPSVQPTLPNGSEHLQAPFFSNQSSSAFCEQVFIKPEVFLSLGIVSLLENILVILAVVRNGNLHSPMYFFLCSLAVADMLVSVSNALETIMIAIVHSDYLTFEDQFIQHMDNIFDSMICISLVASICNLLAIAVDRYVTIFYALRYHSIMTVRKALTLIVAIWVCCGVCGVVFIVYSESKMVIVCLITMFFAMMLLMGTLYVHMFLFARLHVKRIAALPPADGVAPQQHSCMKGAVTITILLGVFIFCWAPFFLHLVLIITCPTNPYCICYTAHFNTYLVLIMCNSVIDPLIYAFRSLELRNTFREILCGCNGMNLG

B1: Hydantoin(C(O)-(Nle-Gly))-c(Cys-Glu-His-D-Phe-Arg-Trp-Cys)-NH2 (peptide)
peptide: [Nle]GCEH[dF]RWC-NH2
modifications: disulfide 3-9; also: N-terminal hydantoin: C(O) bridges X1 N-terminal N and G2 backbone N, bridge at N via C(O), other end not in the chain
Turning to B1, the figures for the Ki in assay [1] and in assay [2] were 14.3 nM and 67.8 nM, respectively.

B2: Ac-Nle-c(Cys-D-Ala-His-D-Phe-Arg-Trp-Gly-Cys)-NH2 (peptide)
peptide: Ac-[Nle]C[dA]H[dF]RWGC-NH2
modifications: disulfide 2-9
SMILES: CCCC[C@H](NC(C)=O)C(=O)N[C@H]1CSSC[C@@H](C(N)=O)NC(=O)CNC(=O)[C@H](Cc2c[nH]c3ccccc23)NC(=O)[C@H](CCCNC(=N)N)NC(=O)[C@@H](Cc2ccccc2)NC(=O)[C@H](Cc2c[nH]cn2)NC(=O)[C@@H](C)NC1=O
Turning to B2, the Ki in assay [3] was 339 nM; in assay [4], 149 nM; in assay [5], 3.01 nM.

B3: Ac-Cha-c(Asp-His-D-Phe-Arg-Trp-Gaba-Lys)-NH2 (peptide)
peptide: Ac-[Cha]DH[dF]RW[GABA]K-NH2
modifications: lactam 2-8
SMILES: CC(=O)N[C@@H](CC1CCCCC1)C(=O)N[C@H]1CC(=O)NCCCC[C@@H](C(N)=O)NC(=O)CCCNC(=O)[C@H](Cc2c[nH]c3ccccc23)NC(=O)[C@H](CCCNC(=N)N)NC(=O)[C@@H](Cc2ccccc2)NC(=O)[C@H](Cc2c[nH]cn2)NC1=O
For the molecule B3, the inhibition constant (Ki) in assay [3] was 110 nM; in assay [6] it was 0.106 nM; in assay [4] it was 11.8 nM; in assay [5] it was 1.49 nM.

As for RGCEH[dF]RWC-NH2 (disulfide 3-9; also: hydantoin ring from C(O) with Arg1-Gly2) [Hydantoin(C(O)-(Arg-Gly))-c(Cys-Glu-His-D-Phe-Arg-Trp-Cys)-NH2], the Ki in assay [1] amounted to 8.59 nM; in assay [7] it was 2.44 nM; in assay [2] it was 7760 nM.

With GRCEH[dF]RWC-NH2 (disulfide 3-9; also: hydantoin ring from C(O) with Gly1-Arg2) [Hydantoin(C(O)-(Gly-Arg))-c(Cys-Glu-His-D-Phe-Arg-Trp-Cys)-NH2], the Ki in assay [1] was 5.68 nM; in assay [7], 2.44 nM; in assay [2], 4220 nM.

On to GGCEH[dF]RWC-NH2 (disulfide 3-9; also: hydantoin ring from C(O) with Gly1-Gly2) [Hydantoin(C(O)-(Gly-Gly))-c(Cys-Glu-His-D-Phe-Arg-Trp-Cys)-NH2], for which the values for the Ki in assay [1] and in assay [2] were 11.9 nM and 73.9 nM, respectively.

Consider Ac-[Nle]D[dA]H[dF]R[Bta]AK-NH2 (lactam 2-9) [Ac-Nle-c(Asp-D-Ala-His-D-Phe-Arg-Bal-Ala-Lys)-NH2], for which the figures for the Ki in assay [3], in assay [6] and in assay [5] were 11.1 nM, 4.89 nM and 21.3 nM, respectively.

B4: Ac-c(Cys-Glu-His-D-2-Nal-Arg-2-Nal-Ala-Cys)-Pro-Pro-Arg-Asp-β-[…]NH2 (peptide)
peptide: Ac-CEH[d2Nal]R[2Nal]ACPPRD[βAla]RRRRRQRRR-NH2
modifications: disulfide 1-8
SMILES: CC(=O)N[C@H]1CSSC[C@@H](C(=O)N2CCC[C@H]2C(=O)N2CCC[C@H]2C(=O)N[C@@H](CCCNC(=N)N)C(=O)N[C@@H](CC(=O)O)C(=O)NCCC(=O)N[C@@H](CCCNC(=N)N)C(=O)N[C@@H](CCCNC(=N)N)C(=O)N[C@@H](CCCNC(=N)N)C(=O)N[C@@H](CCCNC(=N)N)C(=O)N[C@@H](CCCNC(=N)N)C(=O)N[C@@H](CCC(N)=O)C(=O)N[C@@H](CCCNC(=N)N)C(=O)N[C@@H](CCCNC(=N)N)C(=O)N[C@@H](CCCNC(=N)N)C(N)=O)NC(=O)[C@H](C)NC(=O)[C@H](Cc2ccc3ccccc3c2)NC(=O)[C@H](CCCNC(=N)N)NC(=O)[C@@H](Cc2ccc3ccccc3c2)NC(=O)[C@H](Cc2c[nH]cn2)NC(=O)[C@H](CCC(=O)O)NC1=O
In the case of B4, the Ki in assay [1] was found to be 2.63 nM; in assay [7], 0.0737 nM; in assay [2], 11.6 nM.

For Ac-CEH[d2Nal]R[Bta]ACPPKD[βAla]RRKRRQRRR-NH2 (disulfide 1-8) [Ac-c(Cys-Glu-His-D-2-Nal-Arg-Bal-Ala-Cys)-Pro-Pro-Lys-Asp-β-[…]NH2], the Ki in assay [1] turned out to be 3 nM; in assay [7], 0.442 nM; in assay [2] it was 15.5 nM.

B5: Hydantoin(C(O)-(Nle-Gly))-c(Cys-D-Ala-His-D-Phe-Arg-Trp-Pen)-NH2 (peptide)
peptide: [Nle]GC[dA]H[dF]RW[Pen]-NH2
modifications: disulfide 3-9; also: N-terminal hydantoin: C(O) bridges X1 N-terminal N and G2 backbone N, bridge at N via C(O), other end not in the chain
B5: the Ki in assay [1] was 12.9 nM; in assay [7], 3.53 nM; in assay [2], 27.1 nM.

For the molecule Ac-CEH[dF]R[2Nal]AC-NH2 (disulfide 1-8) [Ac-c(Cys-Glu-His-D-Phe-Arg-2-Nal-Ala-Cys)-NH2], the Ki in assay [3] worked out at 1460 nM; in assay [6], 262 nM; in assay [5], 96.4 nM.

Regarding Ac-CEH[d2Nal]R[2Nal]ACPPKD[βAla]RRRRRQRRR-NH2 (disulfide 1-8), the Ki in assay [1] amounted to 2.48 nM; in assay [2], 9.17 nM.

As for Ac-[dR]DH[dF]RWAK-NH2 (lactam 2-8) [Ac-D-Arg-c(Asp-His-D-Phe-Arg-Trp-Ala-Lys)-NH2], the figures for the inhibition constant (Ki) in assay [3], in assay [6] and in assay [4] were 493 nM, 0.79 nM and 45.5 nM, respectively.

As to Ac-CEH[d2Nal]R[2Nal]ACPPKD[βAla]GRKRRRQRRR-NH2 (disulfide 1-8), the Ki in assay [1] was 5.66 nM; in assay [7] it was 0.446 nM; in assay [2], 6.23 nM.

With Ac-[Nle]DH[dF]RW[Ava]K-NH2 (lactam 2-8) [Ac-Nle-c(Asp-His-D-Phe-Arg-Trp-Apn-Lys)-NH2], the inhibition constant Ki in assay [3] was determined as 431 nM; in assay [6] it was 0.999 nM; in assay [4] it was 300 nM; in assay [5], 11.1 nM.

B6: Hydantoin(C(O)-(Arg-Gly))-c(Cys-D-Ala-His-D-2-Nal-Arg-Trp-Cys)-NH2 (peptide)
peptide: RGC[dA]H[d2Nal]RWC-NH2
modifications: disulfide 3-9; also: N-terminal hydantoin: C(O) bridges Arg1 N-alpha and Gly2 N, bridge at N via C(O), other end not in the chain
Consider B6, for which the Ki in assay [1] amounted to 11.9 nM; in assay [7] it was 0.195 nM.

In the case of Ac-[hPhe]DH[dF]RW[GABA]K-NH2 (lactam 2-8) [Ac-hPhe-c(Asp-His-D-Phe-Arg-Trp-Gaba-Lys)-NH2], the Ki stood at 203 nM in assay [3], 25.2 nM in assay [4] and 3.37 nM in assay [5].

B7: c[Hydantoin(C(O)-(Asp-His))-D-2-Nal-Arg-Trp-Lys]-NH2 (peptide)
peptide: DH[d2Nal]RWK-NH2
modifications: lactam 1-6; also: hydantoin ring: N-terminal N of Asp1 and backbone N of His2 bridged by one C(O), bridge at N via C(O), other end not in the chain
B7 had an inhibition constant Ki in assay [1] of 200 nM.

Turning to Ac-[Nle]C[dI]H[dF]RWC-NH2 (disulfide 2-8) [Ac-Nle-c(Cys-D-Ile-His-D-Phe-Arg-Trp-Cys)-NH2], the Ki in assay [3] turned out to be 12.5 nM; in assay [6] it was 4.28 nM; in assay [5] it was 9 nM.

Regarding Ac-[Nle]C[dV]H[dF]RWC-NH2 (disulfide 2-8) [Ac-Nle-c(Cys-D-Val-His-D-Phe-Arg-Trp-Cys)-NH2], the Ki in assay [3] was 40 nM; in assay [6] it was 13 nM; in assay [4] it was 104 nM.

As to Ac-[Nle]DH[d2Nal]RWAK-NH2 (lactam 2-8) [Ac-Nle-c(Asp-His-D-2-Nal-Arg-Trp-Ala-Lys)-NH2], in assay [6], the Ki came out at 1.17 nM.

B8: Ac-Nle-c(Cys-D-Cha-His-D-Phe-Arg-Trp-Cys)-NH2 (peptide)
peptide: Ac-[Nle]C[dCha]H[dF]RWC-NH2
modifications: disulfide 2-8
SMILES: CCCC[C@H](NC(C)=O)C(=O)N[C@H]1CSSC[C@@H](C(N)=O)NC(=O)[C@H](Cc2c[nH]c3ccccc23)NC(=O)[C@H](CCCNC(=N)N)NC(=O)[C@@H](Cc2ccccc2)NC(=O)[C@H](Cc2c[nH]cn2)NC(=O)[C@@H](CC2CCCCC2)NC1=O
B8: the values for the Ki in assay [6], in assay [4] and in assay [5] were 0.353 nM, 2.08 nM and 1.41 nM, respectively.

By Ki is commonly meant the equilibrium dissociation constant of an inhibitor or competing ligand from its target.
